Earlier results in PMC6651453.
Read-outs that look alike come from different tables or passages of the source.

Tests used:
[1] = molecular target: POT1 330-634 (Homo sapiens) (UniProt Q9NUX5); test: isothermal titration calorimetry
[2] = molecular target: TIN2 2-202 (Homo sapiens) (UniProt Q9BSI4); test: fluorescence polarization
[3] = molecular target: TIN2 2-202 (Homo sapiens) (UniProt Q9BSI4); test: fluorescence polarization; remark: listed apart in the source
TPP1 TBM1 (Homo sapiens) [4] = molecular target: TPP1 TBM1 (Homo sapiens) (UniProt Q96AP0); test: fluorescence polarization
TPP1 TBM1 (Homo sapiens) [5] = molecular target: TPP1 TBM1 (Homo sapiens) (UniProt Q96AP0); test: fluorescence polarization; remark: listed apart in the source
TIN2 (Homo sapiens) = TIN2 (Homo sapiens) (UniProt Q9BSI4); test: thermophoresis
[6] = molecular target: TPP1 89-544 (Homo sapiens) (UniProt Q96AP0); test: fluorescence anisotropy and thermophoresis

Sequence of UniProt Q9NUX5 (Q9NUX5 330-634): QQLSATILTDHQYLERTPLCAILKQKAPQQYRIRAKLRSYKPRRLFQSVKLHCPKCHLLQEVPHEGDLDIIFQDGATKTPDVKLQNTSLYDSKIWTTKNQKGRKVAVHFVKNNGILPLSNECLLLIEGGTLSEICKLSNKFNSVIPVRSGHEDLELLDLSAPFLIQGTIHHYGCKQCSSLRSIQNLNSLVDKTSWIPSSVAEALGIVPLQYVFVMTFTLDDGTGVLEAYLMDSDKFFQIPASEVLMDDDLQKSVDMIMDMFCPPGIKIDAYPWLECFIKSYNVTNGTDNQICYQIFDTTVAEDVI

For TPP1 255-337 (from UniProt Q96AP0), which Kd [1] is on record?
The Kd was 120 nM.

Which Kd [2] does the source give for TRF2 TBM2 (from UniProt Q15554) here?
The Kd was 1100 nM.

What about the Kd [3] of the same substance?
Its Kd is 2700 nM.

Which results are given for TIN2 2-202 (from UniProt Q9BSI4)?
Kd (TPP1 TBM1 (Homo sapiens) [4]): 140 nM; Kd (TPP1 TBM1 (Homo sapiens) [5]): 520 nM

For TRF1 (from UniProt P54274), which Kd (TIN2 (Homo sapiens)) is on record?
The Kd was 240 nM.

With TRF2 (from UniProt Q15554) as the substance, how does the Kd (TIN2 (Homo sapiens)) read?
The Kd was 360 nM.

Which Kd [6] does the source give for TIN2 (from UniProt Q9BSI4) here?
The Kd was 2800 nM.
